Laboratory results: patent US6159704

Legend:
[1] = target: PP2Ac of COS-1 cells (endogenous PP2A catalytic subunit / PP2A activity); assay: 12CA5 immunoprecipitation from transfected COS-1 cells, PP2A activity on 32P-LRRASVA
[2] = target: PP2Ac of COS-1 cells (endogenous PP2A catalytic subunit / PP2A activity); assay: 12CA5 immunoprecipitation from transfected COS-1 cells, PP2A activity in the precipitate
[3] = target: 32P-labeled synthetic peptide LRRASVA (Kemptide Val^6, Ala^7) (Artificial Sequence)

Row | PP2A activity with 32P-labeled synthetic peptide (LRRASVA) as substrate, with and without 10 nM okadaic acid [3] [U/mg] | Substance | % immunoprecipitated (of PP2A activity) [1] [%] | PP2A activity in immunoprecipitates (mU) [1] [mU] | fold PP2A activity against eRF1 immunoprecipitates [2] [fold]
1 |  | HA-tagged human PR65α expressed in COS-1 cells (from UniProt P30153) | 3.7 | 17 | 10
2 | 2.4 | PP2Ac of COS-1 cells (endogenous PP2A catalytic subunit / PP2A activity) (enzyme) |  |  | 
